# From the supplement of paper PMC7877785
# ± gives the uncertainty stated by the source.
# Assay: self-splicing fitness, log relative to wild type (ln ratio); higher = more splicing; Tetrahymena group I intron in knt gene, E. coli kanamycin selection, DiMSum; sequences stand for … in CUCUCU…GGAGGGAAAAGUUAUCAGGCAUGCACCUGGUAGCUAGUCUUUAAACCAAUAGAUUGCAUCGGUUUAAAAGGCAAGACCGUCAAAUUGCGGGAAAGGGGUCAACAGCCGUUCAGUACCAAGUCUCAGGGGAAACUUUGAGAUGGCCUUGCAAAGGGUAUGGUAAUAAGCUGACGGACAUGGUCCUAACCACGCAGCCAAGUCCUAAGUCAACAGAUCUUCUGUUGAUAUGGAUGCAGUUCACAGACUAAAUGUCGGUCGGGGAAGAUGUAUUCUUCUCAUAAGAUAUAGUCGGACCUCUCCUUAAUGGGAGCUAGCGGAUGAAGUGAUGCAACACUGGAGCCGCUGGGAACUAAUUUGUAUGCGAAAGUAUAUUGAUUAGUUUUGGAGUACUCGUGGUCG
# Method in brief: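 The eight P1ex-region nucleotides of an intron in the knt kanamycin-resistance gene on pET-22b(+) were all randomised and the library put into E. coli BL21(DE3). Six replicate transformations were grown overnight at 37°C or 30°C on LB agar with or without 25 μg/mL kanamycin, together with 100 μg/mL carbenicillin, 50 μM IPTG and 0.2% rhamnose. Colonies were pooled and amplicon-sequenced on an Illumina HiSeq 2500. Fitness from DiMSum is the error-weighted combination of wild-type-normalised replicate fold changes, kanamycin over none.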
Sequence,self-splicing fitness (ln) (30 °C),self-splicing fitness (ln) (37 °C)
UCAGAGCAAUAUUACGUGAA,-2.01 ± 0.15,-1.2 ± 0.21
UCAGAGCAAUAUUACGUGAC,-3.69 ± 0.28,-1.9 ± 0.23
UCAUAGCAAUAUUACGCAUU,-2.86 ± 0.14,-3.04 ± 0.22
UCAUAGCAAUAUUACGCCUU,-3.75 ± 0.4,-1.52 ± 0.33
UCAUAGCAAUAUUACGCGUG,-2.85 ± 0.12,-1.67 ± 0.11
UCAUAGCAAUAUUACGCGUU,-3.38 ± 0.27,-3.03 ± 0.27
UCAUAGCAAUAUUACGCUUC,,-2.26 ± 0.23
UCAUAGCAAUAUUACGGGGG,-2.69 ± 0.19,-2.27 ± 0.21
UCAUAGCAAUAUUACGGGUC,-2.94 ± 0.42,-2.9 ± 0.35
UCAUAGCAAUAUUACGUAGA,-1.88 ± 0.097,-1.8 ± 0.12
UCAUAGCAAUAUUACGUCAU,-2.74 ± 0.29,-3.16 ± 0.27
UCAUAGCAAUAUUACGUCUC,-1.43 ± 0.32,
UCAUAGCAAUAUUACGUGAU,-3.82 ± 0.17,-2.62 ± 0.2
UCAUAGCAAUAUUACGUGCG,-1.26 ± 0.11,-0.279 ± 0.1
UCAUAGCAAUAUUACGUGGC,,-2.73 ± 0.43
UCAUAGCAAUAUUACGUGGU,-3.42 ± 0.16,-2.8 ± 0.16
UCCAAGCAAUAUUACGAAGA,-0.503 ± 0.086,-0.326 ± 0.087
UCCAAGCAAUAUUACGAAGU,-1.09 ± 0.14,-1.57 ± 0.15
UCCAAGCAAUAUUACGACAC,-2.35 ± 0.31,-1.42 ± 0.38
UCCAAGCAAUAUUACGACUU,-3.57 ± 0.17,-2.54 ± 0.18
UCCAAGCAAUAUUACGAGGG,-3.08 ± 0.2,-2.31 ± 0.31
UCCAAGCAAUAUUACGAGUG,-2.75 ± 0.13,-2.03 ± 0.11
UCCAAGCAAUAUUACGCAGG,-3.56 ± 0.43,-2.05 ± 0.26
UCCAAGCAAUAUUACGCAUG,-4.8 ± 0.31,-2.27 ± 0.19
UCCAAGCAAUAUUACGCGGG,-3.94 ± 0.24,-3.8 ± 0.36

Sequence,self-splicing fitness (ln) (30 °C),self-splicing fitness (ln) (37 °C)
UCCAAGCAAUAUUACGCGGU,-2.56 ± 0.13,-1.92 ± 0.16
UCCAAGCAAUAUUACGCUUA,-3.43 ± 0.18,-1.86 ± 0.11
UCCAAGCAAUAUUACGGCCU,-2.33 ± 0.29,-2.6 ± 0.27
UCCAAGCAAUAUUACGGCUA,-1.98 ± 0.14,-0.476 ± 0.11
UCCAAGCAAUAUUACGGCUU,-3.94 ± 0.4,-1.53 ± 0.25
UCCAAGCAAUAUUACGGUCC,-2.7 ± 0.37,-1.04 ± 0.22
UCCAAGCAAUAUUACGUAUC,-4.43 ± 0.27,-1.93 ± 0.16
UCCAAGCAAUAUUACGUCAC,-3.72 ± 0.39,-3.28 ± 0.43
UCCAAGCAAUAUUACGUCUU,-3.92 ± 0.19,-1.46 ± 0.14
UCCAAGCAAUAUUACGUGAG,-2.37 ± 0.098,-0.996 ± 0.097
UCCAAGCAAUAUUACGUGGG,-3.89 ± 0.23,-2.71 ± 0.18
UCCAAGCAAUAUUACGUUGG,-2.99 ± 0.11,-1.89 ± 0.14
UCCCAGCAAUAUUACGAAAG,-3.84 ± 0.33,-3.06 ± 0.17
UCCCAGCAAUAUUACGACCG,-3.22 ± 0.3,-3.01 ± 0.31
UCCCAGCAAUAUUACGAUGU,-2.1 ± 0.088,-1.2 ± 0.12
UCCCAGCAAUAUUACGCCAA,-2.7 ± 0.33,-1.63 ± 0.3
UCCCAGCAAUAUUACGCGAC,-4.31 ± 0.29,-3.36 ± 0.31
UCCCAGCAAUAUUACGCGAU,-3.29 ± 0.21,-2.64 ± 0.21
UCCCAGCAAUAUUACGCGUG,-3.49 ± 0.18,-2.34 ± 0.2
UCCCAGCAAUAUUACGCGUU,-1.11 ± 0.075,-0.493 ± 0.089
UCCCAGCAAUAUUACGCUCC,-1.78 ± 0.22,-0.443 ± 0.3
UCCCAGCAAUAUUACGCUGA,-2.26 ± 0.12,-3.02 ± 0.21
UCCCAGCAAUAUUACGGAAA,-2.01 ± 0.19,-0.716 ± 0.13
UCCCAGCAAUAUUACGGAAC,-4.36 ± 0.27,-2.65 ± 0.18
UCCCAGCAAUAUUACGGACU,-2.81 ± 0.11,-1.21 ± 0.096

Sequence,self-splicing fitness (ln) (30 °C),self-splicing fitness (ln) (37 °C)
UCCCAGCAAUAUUACGGAGA,-1.18 ± 0.084,-0.484 ± 0.11
UCCCAGCAAUAUUACGGCGA,-0.651 ± 0.063,-0.335 ± 0.078
UCCCAGCAAUAUUACGGCUU,-2.62 ± 0.14,-1.65 ± 0.17
UCCCAGCAAUAUUACGGUCU,-1.83 ± 0.11,-0.794 ± 0.11
UCCCAGCAAUAUUACGUAAG,-3.88 ± 0.18,-1.97 ± 0.17
UCCCAGCAAUAUUACGUACU,-3.77 ± 0.19,-0.776 ± 0.14
UCCGAGCAAUAUUACGACUU,-2.69 ± 0.33,-2.98 ± 0.43
UCCGAGCAAUAUUACGAGGG,-4.27 ± 0.25,-1.93 ± 0.22
UCCGAGCAAUAUUACGAUUC,-2.88 ± 0.43,-2.79 ± 0.48
UCCGAGCAAUAUUACGCAAC,-2.57 ± 0.3,-1.66 ± 0.33
UCCGAGCAAUAUUACGCAGG,-3.19 ± 0.17,-1.88 ± 0.19
UCCGAGCAAUAUUACGCAUC,-3.11 ± 0.41,
UCCGAGCAAUAUUACGCCAC,-2.05 ± 0.4,
UCCGAGCAAUAUUACGCCGU,-2.21 ± 0.22,
UCCGAGCAAUAUUACGCGCA,-0.129 ± 0.15,-0.252 ± 0.14
UCCGAGCAAUAUUACGCGGC,-3.97 ± 0.35,-2.46 ± 0.29
UCCGAGCAAUAUUACGCUCG,-3.71 ± 0.21,-3.08 ± 0.37
UCCGAGCAAUAUUACGCUGU,-3.1 ± 0.19,-0.655 ± 0.16
UCCGAGCAAUAUUACGGCAC,-2.01 ± 0.18,-2.76 ± 0.24
UCCGAGCAAUAUUACGGGUU,-3.41 ± 0.14,-1.9 ± 0.15
UCCGAGCAAUAUUACGGUGC,-3.26 ± 0.19,-2.62 ± 0.22
UCCGAGCAAUAUUACGUAAA,-2.8 ± 0.28,
UCCGAGCAAUAUUACGUAAC,,-0.912 ± 0.35
UCCGAGCAAUAUUACGUGAA,-3.29 ± 0.17,-1.16 ± 0.15
UCCGAGCAAUAUUACGUGAC,-4.99 ± 0.41,-2.66 ± 0.29

Sequence,self-splicing fitness (ln) (30 °C),self-splicing fitness (ln) (37 °C)
UCCGAGCAAUAUUACGUGUU,-2.75 ± 0.16,-2.36 ± 0.15
UCCGAGCAAUAUUACGUUAC,-3.25 ± 0.43,-1.63 ± 0.43
UCCGAGCAAUAUUACGUUCU,-3.44 ± 0.29,-2.62 ± 0.26
UCCGAGCAAUAUUACGUUUG,-3.31 ± 0.2,-3.36 ± 0.25
UCCUAGCAAUAUUACGAAAG,-2.86 ± 0.33,
UCCUAGCAAUAUUACGAAAU,-3.19 ± 0.47,-0.807 ± 0.42
UCCUAGCAAUAUUACGAAUA,-2.81 ± 0.26,-1.98 ± 0.34
UCCUAGCAAUAUUACGACGU,-0.558 ± 0.098,-0.499 ± 0.11
UCCUAGCAAUAUUACGAGCA,-1.64 ± 0.42,-1.11 ± 0.23
UCCUAGCAAUAUUACGAUCU,,-1.69 ± 0.37
UCCUAGCAAUAUUACGCAUU,-3.92 ± 0.21,-1.81 ± 0.11
UCCUAGCAAUAUUACGCCUC,-2.62 ± 0.27,-2.29 ± 0.39
UCCUAGCAAUAUUACGCUGC,,-2.02 ± 0.29
UCCUAGCAAUAUUACGGAAU,-3.08 ± 0.15,-2.1 ± 0.21
UCCUAGCAAUAUUACGGAGA,-0.637 ± 0.072,-0.626 ± 0.079
UCCUAGCAAUAUUACGGUUC,-3.05 ± 0.2,-1.55 ± 0.17
UCCUAGCAAUAUUACGGUUG,-4.08 ± 0.22,-1.81 ± 0.14
UCCUAGCAAUAUUACGUCUA,,-2.69 ± 0.38
UCCUAGCAAUAUUACGUCUC,-3.82 ± 0.23,-2.52 ± 0.21
UCCUAGCAAUAUUACGUGGA,-2.37 ± 0.16,-2.74 ± 0.23
UCCUAGCAAUAUUACGUGGC,-3.85 ± 0.24,-1.78 ± 0.2
UCCUAGCAAUAUUACGUGGU,-2.53 ± 0.1,-1.38 ± 0.096
UCCUAGCAAUAUUACGUUGA,-0.805 ± 0.071,0.0396 ± 0.089
UCGAAGCAAUAUUACGAAAA,-3.1 ± 0.3,-1.54 ± 0.21
